Legend:
myc-JIP1-ΔLIR (human) = myc-JIP1-ΔLIR (human) (UniProt Q9UQF2); assay: co-IP
myc-JIP1-F336A (human) = myc-JIP1-F336A (human) (UniProt Q9UQF2); assay: co-IP

percent of the GFP-LC3 binding of wildtype myc-JIP1 (densitometry of co-IP) (myc-JIP1-ΔLIR (human)): 20% | percent of the GFP-LC3 binding of wildtype myc-JIP1 (densitometry of co-IP) (myc-JIP1-F336A (human)): 20%
Substance: GFP-LC3 (from UniProt Q9GZQ8 1-120) (natural protein)

From PMC4109720
